Test results reported in paper PMC11973430, “Rubisco packaging and stoichiometric composition of the native β-carboxysome in Synechococcus elongatus PCC7942” (Plant Physiology, 2024).

Target: T1, Rubisco L8S8 hexadecamer (Form IB ribulose-1,5-bisphosphate carboxylase/oxygenase) of Synechococcus elongatus … (Synechococcus elongatus PCC7942 …, UniProt Q31NB3 1-472; Q31NB2 1-111)
T1 construct: Rubisco large subunit RbcL, Synechococcus elongatus PCC7942, GenBank ABB57456.1; 52.4 kDa; Rubisco small subunit RbcS, Synechococcus elongatus PCC7942, GenBank ABB57457.1; 13.3 kDa; Native holoenzyme imaged inside isolated β-carboxysomes; not separated from the other carboxysome proteins; also called Rubisco complex; Form IB Rubisco; source: endogenous, inside β-carboxysomes purified from Syn7942 …
Assay: cryo-EM structure; cryoET and subtomogram averaging (emClarity, D4 symmetry) of Rubisco inside isolated native Syn7942 β-carboxysomes (185 carboxysomes) in TEMB buffer (10 mM Tris-HCl pH 8.0, 1 mM EDTA, 10 mM MgCl2, 20 mM NaHCO3); 3.5 Å
Settings: partners not purified

T1 sequence (Q31NB2 whole entry, chain 2 of 2, other chains not shown): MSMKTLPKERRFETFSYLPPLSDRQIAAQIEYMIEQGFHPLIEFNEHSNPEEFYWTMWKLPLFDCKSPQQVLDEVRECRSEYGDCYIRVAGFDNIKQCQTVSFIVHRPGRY

B1: Carboxysome scaffolding (linker) protein CcmM of Synechococcus elongatus PCC7942 (natural protein, UniProt Q03513-2 1-324, looked up)
chain: MSAYNGQGRLSSEVITQVRSLLNQGYRIGTEHADKRRFRTSSWQPCAPIQSTNERQVLSELENCLSEHEGEYVRLLGIDTNTRSRVFEALIQRPDGSVPESLGSQPVAVASGGGRQSSYASVSGNLSAEVVNKVRNLLAQGYRIGTEHADKRRFRTSSWQSCAPIQSSNERQVLAELENCLSEHEGEYVRLLGIDTASRSRVFEALIQDPQGPVGSAKAAAAPVSSATPSSHSYTSNGSSSSDVAGQVRGLLAQGYRISAEVADKRRFQTSSWQSLPALSGQSEATVLPALESILQEHKGKYVRLIGIDPAARRRVAELLIQKP
notes: CcmM, Synechococcus elongatus PCC7942, GenBank AAA27306.1; present in the native β-carboxysome as two isoforms, the full-length 58-kDa CcmM58 and the 35-kDa truncated CcmM35 (three SSUL domains each); Mixture of CcmM35 and CcmM58 in the native carboxysome; also called CcmM35; CcmM58; source: endogenous, inside β-carboxysomes purified from Syn7942 (sucrose gradient ultracentrifugation)
For B1, the “stoichiometry N” value was 4 CcmM SSUL domains per Rubisco L8S8.
